In patent US20170051047A1:
Like-named read-outs stand apart in the source and are kept apart here.

Legend:
[1] = molecular target: T1, Clostridium difficile toxin A (whole toxin A) (Clostridium difficile), P16154; details: remark: other sources report otherwise
[2] = molecular target: T1, Clostridium difficile toxin A (whole …); details: remark: other sources report otherwise; remark: listed apart in the source

B1: CAN20G2 (antibody, V domains shown)
VH: QIQLVQSGPEVKKPGETVKISCKASGYTFTNQGMNWVKQAPGKGLKWMGWINTNTGEPTYTEEFKGRFAFSLETSASTAYLQINNLKNEDTATYFCYVNYDYYTMDFWGQGTSVTVSS
VL: QVVLTQSPAIMSASLGDRVTMTCTASSSVISTYLHWYQQKPGSSPKLWIYSTSTLASGVPPRFSGSGSGTSYSLTISSMEAEDAATYYCLQYHRSPRTFGGGTKLEIK
B1 showed a Kd [1] of 0.00419 nM, a koff [1] of 4.35e-07 s⁻¹ and a kon [1] of 104000 M⁻¹ s⁻¹. It also gave a Kd [2] of 0.166 nM, a koff [2] of 1.8e-05 s⁻¹ and a kon [2] of 108000 M⁻¹ s⁻¹.
